From patent US10590182B2, “Binding-triggered transcriptional switches and methods of use thereof” (The Regents of the University of California, priority 2015, dated 2020) come the findings set out here.

Experiment [1] has as its system gamma secretase. The experiment in a line: Chimeric Notch receiver cell activation by CD19 sender cells with or without gamma secretase inhibitor DAPT. The experiment is classed as cell-based, mouse. The following applies: sender cells expressing CD19, 1 mM DAPT. From the text: DAPT is a gamma secretase inhibitor. The data are expressed as GFP^+ “receiver” cells.
(FIG. 86A) Mouse fibroblasts (L929 line) with anti-CD19/tTA synNotch are cultivated with sender cells expressing Delta, or CD19, or CD19 in the presence of the gamma-secretase inhibitor DAPT. FACS plots of the resulting GFP intensity in receiver cells are shown.

Experiment [2] deals with K562 cells. The experiment is described as follows: Sensitivity of cancer cell line to recombinant TRAIL. In kind it is cell-based. The procedure: (§1) The cells were then harvested and stained with the live/dead stain, SYTOX Blue (Thermo Scientific # S34857) and the fraction of dead cells was determined by flow cytometry on a BD LSR II.
The test system of experiment [3] is HCT116 colon cancer cells. The description is as above. The experiment is classed as cell-based. The procedure: as §1

As for `C[C@H](NC(=O)Cc1cc(F)cc(F)c1)C(=O)NC(C(=O)OC(C)(C)C)c1ccccc1` (stereo partly drawn) [DAPT], in experiment [1], the “GFP+ receiver cells” value is reported as “at control, untreated levels”.

B1: soluble TRAIL: recombinant TRAIL, an inducer of apoptosis and a cancer therapeutic (protein, UniProt P50591 39-281, looked up)
extracellular domain: TNELKQMQDKYSKSGIACFLKEDDSYWDPNDEESMNSPCWQVKWQLRQLVRKMILRTSEETISTVQEKQQNISPLVRERGPQRVAAHITGTRGRSNTLSSPNSKNEKALGRKINSWESSRSGHSFLSNLHLRNGELVIHEKGFYYIYSQTYFRFQEEIKENTKNDKQMVQYIYKYTSYPDPILLMKSARNSCWSKDAEYGLYSIYQGGIFELKENDRIFVSVTNEHLIDMDHEASFFGAFLVG
modifications: extracellular domain
notes: recombinant TRAIL, an inducer of apoptosis and a cancer therapeutic
As to B1, the induction of apoptosis entry in experiment [2] is given as “does not induce apoptosis even at high doses”. Besides, the cell killing result in experiment [3] is “effective at killing”.
